Laboratory results from patent US10253076B2, “Peptides and combination of peptides for use in immunotherapy against ovarian cancer and other cancers” (immatics biotechnologies GmbH, priority 2015, dated 2019).

Molecular target: HLA-A*02:01 (Homo sapiens, UniProt P04439, D140Y/D185E/D98H/E176V/E277Q/G131W/G231S/I119V/I121R/I166T/I218V/L300P/L318F/N151K/N90K/P208A/P217A/Q86G/Q94H/R138H/R169H/T345S)
Assay: MHC binding assay (UV-ligand exchange, beta2m ELISA, peptide exchange yield)
Settings: binding of HLA-class I restricted peptides to HLA-A*02:01, ranged by peptide exchange yield (UV-ligand exchange, β2m ELISA)
Method in brief: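 Peptide–HLA-A*02:01 complexes made by UV-mediated exchange of a photocleavable peptide with the test peptide. Exchange products diluted 100-fold on streptavidin-coated plates, 1 h at 37°C, then HRP anti-β2m 1 h at 37°C; TMB read at 450 nm to give exchange yield.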

Substance | Peptide exchange
453 (KLLEATSAV; listed as Homo sapiens) [compound 453] | ″++″ (≥20% = ++)
89 (YILPTETIYV; listed as Homo sapiens) [compound 89] | ″++++″ (≥75% = ++++)
191 (LLQEGQALEYV; listed as Homo sapiens) [compound 191] | ″++″ (≥20% = ++)
64 (YAAPGGLIGV; listed as Homo sapiens) [compound 64] | ″++″ (≥20% = ++)
427 (ALLPLSPYL; listed as Homo sapiens) [compound 427] | ″+++″ (≥50% = +++)
157 (SLNDEVPEV; listed as Homo sapiens) [compound 157] | ″++″ (≥20% = ++)
399 (YLFEPLYHV; listed as Homo sapiens) [compound 399] | ″+++″ (≥50% = +++)
91 (IMQDFPAEIFL; listed as Homo sapiens) [compound 91] | ″++++″ (≥75% = ++++)
576 (ILLNNSGQIKL; listed as Homo sapiens) [compound 576] | ″++++″ (≥75% = ++++)
33 (VLLSLLEKV; listed as Homo sapiens) [compound 33] | ″++″ (≥20% = ++)
334 (TLTKVLVAL; listed as Homo sapiens) [compound 334] | ″+++″ (≥50% = +++)
372 (TMLLNIPLV; listed as Homo sapiens) [compound 372] | ″++″ (≥20% = ++)
295 (VLDRESPNV; listed as Homo sapiens) [compound 295] | ″+++″ (≥50% = +++)
509 (FLFDTKPLIV; listed as Homo sapiens) [compound 509] | ″+++″ (≥50% = +++)
513 (SLWPSPEQL; listed as Homo sapiens) [compound 513] | ″++″ (≥20% = ++)
590 (SLIEKLWQT; listed as Homo sapiens) [compound 590] | ″++″ (≥20% = ++)
248 (FLFPNQYVDV; listed as Homo sapiens) [compound 248] | ″+++″ (≥50% = +++)
508 (ILAQEQLVVGV; listed as Homo sapiens) [compound 508] | ″+++″ (≥50% = +++)

Substance | Peptide exchange
465 (QLCDLNAEL; listed as Homo sapiens) [compound 465] | ″+++″ (≥50% = +++)
71 (GILARIASV; listed as Homo sapiens) [compound 71] | ″+++″ (≥50% = +++)
493 (GLLGEKTQDLIGV; listed as Homo sapiens) [compound 493] | ″+++″ (≥50% = +++)
609 (ALWKQLLEL; listed as Homo sapiens) [compound 609] | ″+++″ (≥50% = +++)
86 (NLIGKIENV; listed as Homo sapiens) [compound 86] | ″+++″ (≥50% = +++)
299 (YLLETSGNL; listed as Homo sapiens) [compound 299] | ″+++″ (≥50% = +++)
148 (ALNPEIVSV; listed as Homo sapiens) [compound 148] | ″++″ (≥20% = ++)
43 (VLSSLEINI; listed as Homo sapiens) [compound 43] | ″++″ (≥20% = ++)
375 (SLTETIEGV; listed as Homo sapiens) [compound 375] | ″++″ (≥20% = ++)
85 (KMSELRVTL; listed as Homo sapiens) [compound 85] | ″+++″ (≥50% = +++)
184 (YLMDINGKMWL; listed as Homo sapiens) [compound 184] | ″+++″ (≥50% = +++)
635 (SLDSTLHAV; listed as Homo sapiens) [compound 635] | ″+++″ (≥50% = +++)
331 (KVDTVWVNV; listed as Homo sapiens) [compound 331] | ″+++″ (≥50% = +++)
155 (RVANLHFPSV; listed as Homo sapiens) [compound 155] | ″+++″ (≥50% = +++)
121 (GVVDPRAISVL; listed as Homo sapiens) [compound 121] | ″++″ (≥20% = ++)
103 (TLAEEVVAL; listed as Homo sapiens) [compound 103] | ″+++″ (≥50% = +++)
209 (KLIESKHEV; listed as Homo sapiens) [compound 209] | ″++″ (≥20% = ++)
108 (ALFPGVALLLA; listed as Homo sapiens) [compound 108] | ″++++″ (≥75% = ++++)

Other lines, results leading:

Peptide exchange | Substance
″++″ (≥20% = ++) | 458 (SLIDKLYNI; listed as Homo sapiens) [compound 458]
″+++″ (≥50% = +++) | 165 (SLLDEIRAV; listed as Homo sapiens) [compound 165]
″+++″ (≥50% = +++) | 286 (YLFPGIPEL; listed as Homo sapiens) [compound 286]
″+++″ (≥50% = +++) | 13 (YLMDESLNL; listed as Homo sapiens) [compound 13]
″+++″ (≥50% = +++) | 325 (FIMPATVADATAV; listed as Homo sapiens) [compound 325]
″++″ (≥20% = ++) | 374 (FLLQQHLISA; listed as Homo sapiens) [compound 374]
″+++″ (≥50% = +++) | 132 (LLVEQPPLAGV; listed as Homo sapiens) [compound 132]
″++″ (≥20% = ++) | 510 (KLYSVVSQL; listed as Homo sapiens) [compound 510]
″+++″ (≥50% = +++) | 134 (YLQELIFSV; listed as Homo sapiens) [compound 134]
″+++″ (≥50% = +++) | 136 (YLADPSNLFVV; listed as Homo sapiens) [compound 136]
″+++″ (≥50% = +++) | 201 (RLVDYLEGI; listed as Homo sapiens) [compound 201]
″++++″ (≥75% = ++++) | 602 (YLLEQIKLIEV; listed as Homo sapiens) [compound 602]
″+++″ (≥50% = +++) | 111 (YVWGFYPAEV; listed as Homo sapiens) [compound 111]
″++″ (≥20% = ++) | 228 (AMQEYIAVV; listed as Homo sapiens) [compound 228]
″+++″ (≥50% = +++) | 188 (GLFPVTPEAV; listed as Homo sapiens) [compound 188]
″++″ (≥20% = ++) | 402 (VLFSGALLGL; listed as Homo sapiens) [compound 402]
″++″ (≥20% = ++) | 80 (FLYDNLVESL; listed as Homo sapiens) [compound 80]
″+++″ (≥50% = +++) | 515 (LLQELVLFL; listed as Homo sapiens) [compound 515]
″++++″ (≥75% = ++++) | 68 (SLMELPRGLFL; listed as Homo sapiens) [compound 68]
″+++″ (≥50% = +++) | 255 (VLASYNLTV; listed as Homo sapiens) [compound 255]
″+++″ (≥50% = +++) | 547 (TLDITPHTV; listed as Homo sapiens) [compound 547]
″+++″ (≥50% = +++) | 304 (MTLGQIYYL; listed as Homo sapiens) [compound 304]
″++″ (≥20% = ++) | 124 (ALYETELADA; listed as Homo sapiens) [compound 124]
